From patent publication US20220185901A1 (Bayer, published 2022)

What was measured:
[1] = molecular target: T1, hActivin RIA/ALK-2 Fc Chimera (TPP-17233) (human, UniProt Q04771 23-123); test: ELISA: human ALK-2-Fc coated at 2 µg/ml, TPP-14719 titrated, detected with anti-human IgG2 (Fc specific) then anti-mouse IgG-HRP; readout Relative Fluorescence Units
T1 construct: also called human ALK-2-Fc
T1 sequence: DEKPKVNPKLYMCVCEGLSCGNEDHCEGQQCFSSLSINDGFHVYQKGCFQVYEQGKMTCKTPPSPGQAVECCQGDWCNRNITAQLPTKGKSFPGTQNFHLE
Experimental: (§1) Antigens human ALK-1-Fc and human ALK-2-Fc were coated at 2 μg/ml and binding of TPP-14696 and TPP-14719 was detected by anti-human IgG2 (Fc specific) antibody (Sigma 19513) followed by anti-mouse IgG (whole molecule)—HRP (Sigma A9044, 1:40000).
(§2) In order to determine the selectivity for the ALK-1/BMPR-2 receptor complex compared to the ALK-2/BMPR-2 receptor, the specificity of the agonistic antibodies has been evaluated by ELISA (FIG. 9). The antigens human ALK-1-Fc and human ALK-2-Fc were coated at 2 μg/ml and binding of TPP-14696 and TPP-14719 was detected by anti-human IgG2 (Fc specific) antibody (Sigma 19513) followed by anti-mouse IgG (whole molecule)—HRP (Sigma A9044, 1:40000).

[2] = molecular target: ALK-1/BMPR-2 receptor pair on PathHunter U2OS ALK-1/BMPR-2 dimerization cells (DiscoverX 93-0962C3) (UniProt P37023 22-503; Q13873 27-1038); test: cell-based or functional assay
Chain of ALK-1/BMPR-2 receptor pair on PathHunter U2OS ALK-1/BMPR-2 dimerization cells (DiscoverX 93-0962C3) (P37023 22-503, chain 1 of 2): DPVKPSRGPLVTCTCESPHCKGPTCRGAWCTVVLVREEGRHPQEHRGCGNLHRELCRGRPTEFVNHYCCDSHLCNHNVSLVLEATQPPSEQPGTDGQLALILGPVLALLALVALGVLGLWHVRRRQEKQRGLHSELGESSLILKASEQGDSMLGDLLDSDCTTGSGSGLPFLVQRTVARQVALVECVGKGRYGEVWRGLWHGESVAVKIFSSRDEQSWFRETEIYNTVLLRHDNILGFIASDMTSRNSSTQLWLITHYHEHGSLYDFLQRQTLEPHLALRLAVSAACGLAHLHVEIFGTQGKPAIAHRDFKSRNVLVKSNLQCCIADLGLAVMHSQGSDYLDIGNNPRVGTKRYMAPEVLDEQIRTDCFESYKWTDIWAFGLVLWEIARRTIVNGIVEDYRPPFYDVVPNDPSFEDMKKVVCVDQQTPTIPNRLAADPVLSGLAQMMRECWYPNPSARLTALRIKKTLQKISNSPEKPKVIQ
Chain of ALK-1/BMPR-2 receptor pair on PathHunter U2OS ALK-1/BMPR-2 dimerization cells (DiscoverX 93-0962C3) (Q13873 27-1038, chain 2 of 2): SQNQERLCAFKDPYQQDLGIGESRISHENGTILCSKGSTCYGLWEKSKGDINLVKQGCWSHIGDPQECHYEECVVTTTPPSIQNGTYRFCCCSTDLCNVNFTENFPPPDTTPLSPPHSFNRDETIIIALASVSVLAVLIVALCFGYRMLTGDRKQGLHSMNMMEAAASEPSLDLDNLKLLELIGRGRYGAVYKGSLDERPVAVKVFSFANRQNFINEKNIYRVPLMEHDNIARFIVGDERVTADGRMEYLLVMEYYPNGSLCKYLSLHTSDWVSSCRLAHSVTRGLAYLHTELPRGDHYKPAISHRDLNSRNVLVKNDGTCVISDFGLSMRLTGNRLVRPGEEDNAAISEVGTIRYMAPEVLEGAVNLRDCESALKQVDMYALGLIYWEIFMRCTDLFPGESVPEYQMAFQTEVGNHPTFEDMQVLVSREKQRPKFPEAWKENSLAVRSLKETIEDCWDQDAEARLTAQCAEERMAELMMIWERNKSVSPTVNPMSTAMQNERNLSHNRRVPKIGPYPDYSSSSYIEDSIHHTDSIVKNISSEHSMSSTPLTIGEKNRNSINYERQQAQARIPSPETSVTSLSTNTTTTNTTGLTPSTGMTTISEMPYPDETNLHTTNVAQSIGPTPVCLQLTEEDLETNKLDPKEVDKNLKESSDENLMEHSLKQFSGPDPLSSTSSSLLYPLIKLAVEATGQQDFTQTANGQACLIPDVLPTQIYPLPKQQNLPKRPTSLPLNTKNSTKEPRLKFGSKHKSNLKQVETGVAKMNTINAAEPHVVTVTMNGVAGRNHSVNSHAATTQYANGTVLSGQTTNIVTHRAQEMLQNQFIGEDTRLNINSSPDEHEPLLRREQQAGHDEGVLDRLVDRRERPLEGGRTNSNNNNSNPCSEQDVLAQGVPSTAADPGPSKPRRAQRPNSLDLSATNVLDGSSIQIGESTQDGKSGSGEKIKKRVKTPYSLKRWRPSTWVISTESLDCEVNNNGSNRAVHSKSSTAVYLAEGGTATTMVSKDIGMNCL

[3] = molecular target: T2, human ALK-1-Fc (TPP-11726) (human); test: ELISA: human ALK-1-Fc coated at 2 µg/ml, TPP-14719 titrated, detected with anti-human IgG2 (Fc specific) then anti-mouse IgG-HRP; readout Relative Fluorescence Units
T2 construct: Used for panning, screening and SPR; also called hALK-1-Fc
T2 sequence (chain, as listed by the source limits assumed): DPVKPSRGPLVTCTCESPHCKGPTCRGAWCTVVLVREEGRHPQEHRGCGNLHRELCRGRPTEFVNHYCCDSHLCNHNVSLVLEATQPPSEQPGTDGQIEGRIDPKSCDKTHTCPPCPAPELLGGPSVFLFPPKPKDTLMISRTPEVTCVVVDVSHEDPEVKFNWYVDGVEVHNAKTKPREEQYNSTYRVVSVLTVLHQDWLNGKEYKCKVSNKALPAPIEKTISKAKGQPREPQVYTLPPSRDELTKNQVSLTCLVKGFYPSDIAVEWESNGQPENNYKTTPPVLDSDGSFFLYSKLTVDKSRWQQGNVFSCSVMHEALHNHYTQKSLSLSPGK
Experimental: as §1, §2

- binding result [1]: no binding
- Agonistic activity in PathHunter U2OS cells EC50 [2]: 6.9 nM
- EC50 [3]: 0.747 nM
B1: TPP-14719 (13660-13469-scFv-kih-IgG2_Fc) (bispecific antibody)
chain 1: EVQLLESGGGLVQPGGSLRLSCAASGFTFSSYAMSWVRQAPGKGLEWVANINQDGSEKNYVDSMRGRFTISRDNSKNTLYLQMNSLRAEDTAVYYCAREFDYWGQGTLVTVTSSGGGGSGGGGSGGGGSQSVLAQPPSASGTPGQRVTISCSGSSSNIGSNYVYWYQQLPGTAPKLLIYGNNKRPSGVPDRFSGSKSGTSASLAISGLRSEDEADYYCAAWDDSLNGRVFGGGTKLTVLGGGGSGGGGSGGGGSGVECPPCPAPPVAGPSVFLFPPKPKDTLMISRTPEVTCVVVDVSHEDPEVQFNWYVDGVEVHNAKTKPREEQFNSTFRVVSVLTVVHQDWLNGKEYKCKVSNKGLPAPIEKTISKTKGQPREPQVYTLPPCREEMTKNQVSLWCLVKGFYPSDIAVEWESNGQPENNYKTTPPMLDSDGSFFLYSKLTVDKSRWQQGNVFSCSVMHEALHNHYTQKSLSLSPG
chain 2: EVQLLESGGGLVQPGGSLRLSCAASGFTFSDYYMTWIRQAPGKGLEWVSSISGGSTYYADSRKGRFTISRDNSENTLYLQMNSLRAEDTAVYYCARDFGVAGWFGQYGMDVWGQGTLVTVSSGGGGSGGGGSGGGGSQSVLTQPPSASGTPGQRVTISCTGSSSNIGAGYDVHWYQQLPGTAPKLLIYRSNQRPSGVPDRFSGSKSGTSASLAISGLRSEDEADYYCSSYAGNYNLVFGGGTKLTVLGGGGSGGGGSGGGGSGVECPPCPAPPVAGPSVFLFPPKPKDTLMISRTPEVTCVVVDVSHEDPEVQFNWYVDGVEVHNAKTKPREEQFNSTFRVVSVLTVVHQDWLNGKEYKCKVSNKGLPAPIEKTISKTKGQPREPQVCTLPPSREEMTKNQVSLSCAVKGFYPSDIAVEWESNGQPENNYKTTPPMLDSDGSFFLVSKLTVDKSRWQQGNVFSCSVMHEALHNHYTQKSLSLSPG
notes: scFv-Fc (kih) heterodimer with IgG2 Fc; also called BsAB TPP-14719
